B1: Azoarcus group I ribozyme (parent)
chain: GUGCCUUGCGCCGGGAAACCACGCAAGGGAUGGUGUCAAAUUCGGCGAAACCUAAGCGCCCGCCCGGGCGUAUGGCAACGCCGAGCCAAGCUUCGGCGCCUGCGCCGAUGAAGGUGUAGAGACUAGACGGCACCCACCUAAGGCAAACGCUAUGGUGAAGGCAUAGUCCAGGGAGUGGCGAAAGUCACACAAACCGG

Variants of: B1
Assay: reverse-splicing fitness (ratio to wild type); higher = more active; in vitro selection; Mg2+ level not given
Procedure, shortened: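 An in vitro group I ribozyme library with randomized positions was T7-transcribed and gel-purified. In triplicate, 10 pmol RNA in EPPS pH 7.5 was reacted with 50 pmoles of a 30-nt RNA substrate for 1 h at 37 °C across several added MgCl2 levels (1–48 mM), then stopped with EDTA. Products were reverse transcribed from a substrate-complementary primer, PCR-amplified and sequenced (HiSeq 4000). Fitness is a variant's read proportion after selection over that before, normalised to wild type.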

**Q.** For C82U A111C A120U A145G C150U U176A, which reverse-splicing fitness is on record?
**A.** 0.00854

**Q.** For C82U A111C A120U A145G C150U U176G, which reverse-splicing fitness is on record?
**A.** 0.00287

**Q.** With C82U A111C A120U A145G C150U U176C as the variant, how does the reverse-splicing fitness read?
**A.** 0.0107

**Q.** For C82U A111C A120G C150A C169G U176C, which reverse-splicing fitness is on record?
**A.** 0.0202

**Q.** With C82U A111C A120G C150A C169G U176A as the variant, how does the reverse-splicing fitness read?
**A.** 0.0168

**Q.** With C82U A111C A120G C150A C169G U176G as the variant, how does the reverse-splicing fitness read?
**A.** 0.00479

**Q.** With C82U A111C A120U C150A C169A U176A as the variant, how does the reverse-splicing fitness read?
**A.** 0.00438

**Q.** Which reverse-splicing fitness does the source give for C82U A111C A120U C150A C169A U176C here?
**A.** 0.00354

**Q.** Which reverse-splicing fitness does the source give for C82U A111C A120U C150A C169A U176G here?
**A.** 0.00303

**Q.** Which reverse-splicing fitness does the source give for C82U A111C A120G C169A U176A here?
**A.** 0.0141

**Q.** For C82U A111C A120G C169A U176C, which reverse-splicing fitness is on record?
**A.** 0.019

**Q.** With C82U A111C A120G C169A U176G as the variant, how does the reverse-splicing fitness read?
**A.** 0.00418

**Q.** Which reverse-splicing fitness does the source give for C82U A111C A120G C150A C169U here?
**A.** 0.00789

**Q.** With C82U A111C A120G C150A C169G as the variant, how does the reverse-splicing fitness read?
**A.** 0.00808

**Q.** For C82U A111C A120G C150A C169A, which reverse-splicing fitness is on record?
**A.** 0.0101

**Q.** With C82U A111C A120U C150G C169A U176A as the variant, how does the reverse-splicing fitness read?
**A.** 0.00624

**Q.** With C82U A111C A120U C150G C169A U176C as the variant, how does the reverse-splicing fitness read?
**A.** 0.00467

**Q.** Which reverse-splicing fitness does the source give for C82U A111C A120U C150G C169A U176G here?
**A.** 0.00261

**Q.** For C82U A111C A120G C150U C169A U176G, which reverse-splicing fitness is on record?
**A.** 0.00479

**Q.** Which reverse-splicing fitness does the source give for C82U A111C A120G C150U C169A U176C here?
**A.** 0.0113

**Q.** For C82U A111C A120G C150U C169A U176A, which reverse-splicing fitness is on record?
**A.** 0.0142

**Q.** For C82U A111C A120U A145C, which reverse-splicing fitness is on record?
**A.** 0.0226

**Q.** With C82U A111C A120U A145U as the variant, how does the reverse-splicing fitness read?
**A.** 0.0254

**Q.** With C82U A111C A120U A145G as the variant, how does the reverse-splicing fitness read?
**A.** 0.0248

**Q.** For C82U A111C A120U C169A U176G, which reverse-splicing fitness is on record?
**A.** 0.00185

**Q.** Which reverse-splicing fitness does the source give for C82U A111C A120U C169A U176C here?
**A.** 0.00352

**Q.** With C82U A111C A120U C169A U176A as the variant, how does the reverse-splicing fitness read?
**A.** 0.00309

**Q.** With C82U A111C A120U A145G C169G U176A as the variant, how does the reverse-splicing fitness read?
**A.** 0.00323

**Q.** Which reverse-splicing fitness does the source give for C82U A111C A120U A145G C169G U176C here?
**A.** 0.00344

**Q.** Which reverse-splicing fitness does the source give for C82U A111C A120U A145G C169G U176G here?
**A.** 0.0017

**Q.** Which reverse-splicing fitness does the source give for C82U A111C A120G C150A U176A here?
**A.** 0.0152

**Q.** For C82U A111C A120G C150A U176C, which reverse-splicing fitness is on record?
**A.** 0.0182

**Q.** For C82U A111C A120G C150A U176G, which reverse-splicing fitness is on record?
**A.** 0.00579

**Q.** For C82U A111C A120U A145U C150U U176C, which reverse-splicing fitness is on record?
**A.** 0.0089

**Q.** Which reverse-splicing fitness does the source give for C82U A111C A120U A145U C150U U176G here?
**A.** 0.0027

**Q.** For C82U A111C A120U A145U C150U U176A, which reverse-splicing fitness is on record?
**A.** 0.00562

**Q.** With C82U A111C A120G C150U C169G as the variant, how does the reverse-splicing fitness read?
**A.** 0.00848

**Q.** For C82U A111C A120G C150U C169A, which reverse-splicing fitness is on record?
**A.** 0.00877

**Q.** For C82U A111C A120G C150U C169U, which reverse-splicing fitness is on record?
**A.** 0.00841

**Q.** With C82U A111C A120U C169G U176C as the variant, how does the reverse-splicing fitness read?
**A.** 0.0039

**Q.** For C82U A111C A120U C169G U176G, which reverse-splicing fitness is on record?
**A.** 0.00177

**Q.** For C82U A111C A120U C169G U176A, which reverse-splicing fitness is on record?
**A.** 0.0032

**Q.** With C82U A111C A120U A145U C150U C169A U176G as the variant, how does the reverse-splicing fitness read?
**A.** 0.00229

**Q.** Which reverse-splicing fitness does the source give for C82U A111C A120U A145U C150U C169A U176C here?
**A.** 0.00282

**Q.** For C82U A111C A120U A145U C150U C169A U176A, which reverse-splicing fitness is on record?
**A.** 0.00306

**Q.** With C82U A111C A120U A145C C150U C169U as the variant, how does the reverse-splicing fitness read?
**A.** 0.00319

**Q.** For C82U A111C A120U A145C C150U C169A, which reverse-splicing fitness is on record?
**A.** 0.00253

**Q.** For C82U A111C A120U A145C C150U C169G, which reverse-splicing fitness is on record?
**A.** 0.00293

**Q.** For C82U A111C A120U C150U C169A U176G, which reverse-splicing fitness is on record?
**A.** 0.00291

**Q.** With C82U A111C A120U C150U C169A U176A as the variant, how does the reverse-splicing fitness read?
**A.** 0.00486

**Q.** For C82U A111C A120U C150U C169A U176C, which reverse-splicing fitness is on record?
**A.** 0.00372

**Q.** For C82U A111C A120U A145G C150A, which reverse-splicing fitness is on record?
**A.** 0.00865

**Q.** For C82U A111C A120U A145G C150G, which reverse-splicing fitness is on record?
**A.** 0.00805

**Q.** With C82U A111C A120U A145G C150U as the variant, how does the reverse-splicing fitness read?
**A.** 0.0233

**Q.** Which reverse-splicing fitness does the source give for C82U A111C A120U A145G C150U C169A here?
**A.** 0.00649

**Q.** With C82U A111C A120U A145G C150U C169U as the variant, how does the reverse-splicing fitness read?
**A.** 0.00521

**Q.** With C82U A111C A120U A145G C150U C169G as the variant, how does the reverse-splicing fitness read?
**A.** 0.00549

**Q.** With C82U A111C A120U C150A C169G as the variant, how does the reverse-splicing fitness read?
**A.** 0.00399

**Q.** For C82U A111C A120U C150A C169U, which reverse-splicing fitness is on record?
**A.** 0.00491

**Q.** With C82U A111C A120U C150A C169A as the variant, how does the reverse-splicing fitness read?
**A.** 0.00472

**Q.** For C82U A111C A120G C150G, which reverse-splicing fitness is on record?
**A.** 0.00744

**Q.** Which reverse-splicing fitness does the source give for C82U A111C A120G C150U here?
**A.** 0.0115

**Q.** Which reverse-splicing fitness does the source give for C82U A111C A145C C150A C169A U176G here?
**A.** 0.00794

**Q.** Which reverse-splicing fitness does the source give for C82U A111C A145C C150A C169A U176C here?
**A.** 0.00874

**Q.** For C82U A111C A145C C150A C169A U176A, which reverse-splicing fitness is on record?
**A.** 0.0134

**Q.** Which reverse-splicing fitness does the source give for C82U A111C A120U A145G C150G C169U U176A here?
**A.** 0.0084

**Q.** For C82U A111C A120U A145G C150G C169U U176C, which reverse-splicing fitness is on record?
**A.** 0.00661

**Q.** With C82U A111C A120U A145G C150G C169U U176G as the variant, how does the reverse-splicing fitness read?
**A.** 0.00411

**Q.** Which reverse-splicing fitness does the source give for C82U A111C A120U A145G C150U C169G U176A here?
**A.** 0.00475

**Q.** For C82U A111C A120U A145G C150U C169G U176C, which reverse-splicing fitness is on record?
**A.** 0.00346

**Q.** With C82U A111C A120U A145G C150U C169G U176G as the variant, how does the reverse-splicing fitness read?
**A.** 0.0025

**Q.** For C82U A111C A120U A145U C169G U176C, which reverse-splicing fitness is on record?
**A.** 0.00286

**Q.** For C82U A111C A120U A145U C169G U176G, which reverse-splicing fitness is on record?
**A.** 0.00187

**Q.** For C82U A111C A120U A145U C169G U176A, which reverse-splicing fitness is on record?
**A.** 0.00259

**Q.** Which reverse-splicing fitness does the source give for C82U A111C A120U A145C C169U here?
**A.** 0.0039

**Q.** Which reverse-splicing fitness does the source give for C82U A111C A120U A145C C169G here?
**A.** 0.00298

**Q.** For C82U A111C A120U A145C C169A, which reverse-splicing fitness is on record?
**A.** 0.00236

**Q.** With C82U A111C A120U A145C C169U U176C as the variant, how does the reverse-splicing fitness read?
**A.** 0.00263

**Q.** With C82U A111C A120U A145C C169U U176G as the variant, how does the reverse-splicing fitness read?
**A.** 0.00205

**Q.** Which reverse-splicing fitness does the source give for C82U A111C A120U A145C C169U U176A here?
**A.** 0.00335

**Q.** Which reverse-splicing fitness does the source give for C82U A111C A120U A145U U176A here?
**A.** 0.00693

**Q.** With C82U A111C A120U A145U U176C as the variant, how does the reverse-splicing fitness read?
**A.** 0.0113

**Q.** With C82U A111C A120U A145U U176G as the variant, how does the reverse-splicing fitness read?
**A.** 0.00361

Source: the RNAGym collection of RNA variant scans (doi:10.1093/molbev/msab373)
